In this experiment the target is T1, His-tagged CD40 antigen (human, UniProt P25942 21-193, limits assumed).
T1 construct: Captured on an anti-His antibody on a CM5 chip; not shown: His tag
Description: SPR, Biacore T200, CM5 chip, His-tagged CD40 captured on anti-His antibody. The text has this:
That is, the anti-His antibody was immobilized on the surface of the CM5 sensor chip by an amine coupling method. His-tagged CD40 antigen was captured by reacting the His-tagged CD40 antigen with the antibody and then the captured antigen was reacted with sensor chip coated with an anti-his antibody. The results were read using biocore T200 (GE Healthcare).
(In general: In SPR one partner is held on a chip, and binding of the other changes the refractive index at the surface.)

T1 sequence (P25942 21-193 limits assumed): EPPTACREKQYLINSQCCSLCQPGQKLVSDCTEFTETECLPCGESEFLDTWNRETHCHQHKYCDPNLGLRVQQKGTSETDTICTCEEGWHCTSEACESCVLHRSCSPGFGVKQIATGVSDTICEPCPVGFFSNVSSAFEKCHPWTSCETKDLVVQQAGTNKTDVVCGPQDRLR

B1: anti-CD40 antibody RM8G-1 (antibody, V domains shown)
VH: LVQLKESGPGLVAPSQSLSITCTVSGFSLTDYGVGWIRQPPGKDLEWLGVMWGGGRTYYNAPLKSRLSISKDNSKSQVFLKMNSLQTDDTAMYYCVKTGQDYAVDYWGQGTSVTVSS
VL: DIVLTQSPASLAVSLGQRATISCRASKSVSTSAYSYMHWYQQKPGQPPKLLIYLASNLESGVPARFSGSGSGTDFTLNIHPVEEEDAATYYCQHSWDLPYTFGGGTKLEIK
notes: Mouse monoclonal antibody from hybridoma RM8G1 (KCLRF-BP-00336); also called RM RM8G-1; anti-CD40 RM8G-1
In general, Kd refers to the concentration at which binding is half-saturated. Lower therefore signals higher affinity. A word on the koff: it is a measure of how fast the partners let go of each other. Low readings indicate slow dissociation, high ones fast dissociation. As a reminder, the kon is the rate constant with which the complex forms. Higher therefore signals faster complex formation. On to B1, for which the Kd turned out to be 0.494 nM, the koff is 0.000234 s⁻¹ and the kon is 474000 M⁻¹ s⁻¹.

(Values after patent US20200291123A1 (PB IMMUNE THERAPEUTICS, published 2020).)
